Patent US12697350B2, “Methods and compositions for treating a premature termination codon-mediated disorder” (Tevard Biosciences, Inc., priority 2019, dated 2026)

Tested on: EGFP-R96X-TGA reporter
Assay: 100 nt 5′ leader sequence library with ArgTCA suppressor tRNA #115, EGFP-R96X-TGA reporter, Flp-In-293 cells (FIGS. 28, 29, 32)
Format: cell-based, human
Source text: FIG. 27 is a schematic representation of the constructs used to test the impact of a 5′ leader sequence on the read-through of a premature termination codon (PTC) by a suppressor tRNA. Constructs contain (i) a 100 bp 5′ leader sequence derived from genomic DNA located upstream of tRNA genes that are highly expressed in HEK293 cells, (ii) a single copy of either the ArgTCA suppressor tRNA #115 (SEQ ID NO: 18) or the GlnTTA suppressor tRNA #163 (SEQ ID NO: 45), and (iii) an RNA polymerase III termination signal (“Term”).
FIG. 28 is a graph depicting the readthrough activity of the indicated ArgTCA suppressor tRNA expression constructs as measured by flow cytometry in Flp-In-293 cells at ~24 hours post transfection. […]
FIG. 29 is a graph depicting the readthrough activity of the indicated ArgTCA suppressor tRNA expression constructs as measured by flow cytometry in Flp-In-293 cells at ~24 hours post transfection. […]
The leader sequences in combination with the ArgTCA suppressor tRNA #115 (SEQ ID NO: 18) or the GlnTTA suppressor tRNA #163 (SEQ ID NO: 45) were tested for PTC readthrough activity by flow cytometry in cell lines co-transfected with an EGFP-R96X-TGA reporter (SEQ ID NO: 31) for ArgTCA constructs or an EGFP-Q69X-TAA reporter (SEQ ID NO: 175) for GlnTTA constructs.

B1: tRNA-Arg-TCT-2-1-TCA-SUP_no intron (nucleic acid)
chain: GGCTCCGTGGCGCAATGGATAGCGCATTGGACTTCAAATTCAAAGGTTCCGGGTTCGAGTCCCGGCGGAGTCG
modifications: chemistry not fully specified
Q: With B1 as the molecule, how does the “readthrough activity when combined with the identified leader sequences” value read?
A: showed high readthrough activity
